Patent US20190352402A1 (NANJING LEADS BIOLABS, published 2019)
Residue numbers refer to the chain shown, from its start. Read-outs that look alike come from different tables or passages of the source. Each block holds one binder with its values, some of them ahead of it.

Assays:
[1] = biological target: T1, Human PD-1 (prepared in Leadsbiolabs, amino acid sequence of NP_005009.2 set forth in SEQ ID NO.: 66) (human, UniProt Q15116 25-170, limits assumed); experiment: blocking ELISA, human PD-1 coated, blocked ligand human PD-L1-mouse Fc-tag; fit value printed in the table although the control's curve does not fall (see non_binding)
T1 sequence (Q15116 25-170 limits assumed): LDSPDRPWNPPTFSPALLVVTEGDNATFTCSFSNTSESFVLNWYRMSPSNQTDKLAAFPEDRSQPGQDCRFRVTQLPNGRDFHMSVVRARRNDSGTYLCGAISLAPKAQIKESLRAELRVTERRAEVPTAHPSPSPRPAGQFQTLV

[2] = biological target: T2, cynomolgus PD-1-his protein (Acrobiosystems, Cat# PD1-05223) (cynomolgus monkey, UniProt B0LAJ3 25-170); experiment: ELISA, cynomolgus PD-1 coated at 25 ng/well
T2 construct: also called cynoPD-1-his; cynomolgus PD-1 protein
T2 sequence (B0LAJ3 entry or part of it limits assumed): as the sequence (Q15116 25-170 limits assumed) above, with D2E, P10A, V19L, T35A, Q75R, T144A counted along it

[3] = biological target: T3, Human PD-1 protein (SINO Biological Inc., Cat#10377-H08H-100) (human, UniProt Q15116 25-167); experiment: ELISA, human PD-1 coated at 25 ng/well
T3 construct: Bought protein
T3 sequence (Q15116 25-167 limits assumed): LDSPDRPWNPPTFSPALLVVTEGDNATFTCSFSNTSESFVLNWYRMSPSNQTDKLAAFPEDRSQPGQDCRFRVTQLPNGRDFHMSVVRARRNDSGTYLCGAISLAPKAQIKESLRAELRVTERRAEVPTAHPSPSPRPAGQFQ

[4] = biological target: T4, mouse PD-1 protein (SINO Biological Inc., Cat#50124-M08H) (mouse, UniProt Q02242 25-167); experiment: ELISA, mouse PD-1 coated at 25 ng/well
T4 sequence (looked up): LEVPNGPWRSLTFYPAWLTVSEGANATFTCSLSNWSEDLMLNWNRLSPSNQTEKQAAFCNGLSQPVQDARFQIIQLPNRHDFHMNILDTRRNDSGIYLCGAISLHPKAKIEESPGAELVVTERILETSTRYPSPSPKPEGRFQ

[5] = biological target: T5, human BTLA (Acrobiosystems, Cat# BTA-H52E0) (human, UniProt Q7Z6A9 31-150, limits assumed); experiment: ELISA, human BTLA coated at 25 ng/well
T5 sequence (looked up): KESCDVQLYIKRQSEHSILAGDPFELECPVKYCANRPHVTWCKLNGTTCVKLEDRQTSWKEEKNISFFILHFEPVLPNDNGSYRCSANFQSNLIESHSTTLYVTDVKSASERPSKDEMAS

[6] = biological target: T6, cynomolgus PD-1 expressed on stimulated cynomolgus PBMCs (cynomolgus monkey, UniProt B0LAJ3 25-288); experiment: flow cytometry on cynomolgus PBMCs after SEB stimulation, MFI
T6 construct: also called monkey PD-1; PD-1 expressed on cynomolgus monkey PBMCs
T6 sequence (B0LAJ3 entry or part of it limits assumed): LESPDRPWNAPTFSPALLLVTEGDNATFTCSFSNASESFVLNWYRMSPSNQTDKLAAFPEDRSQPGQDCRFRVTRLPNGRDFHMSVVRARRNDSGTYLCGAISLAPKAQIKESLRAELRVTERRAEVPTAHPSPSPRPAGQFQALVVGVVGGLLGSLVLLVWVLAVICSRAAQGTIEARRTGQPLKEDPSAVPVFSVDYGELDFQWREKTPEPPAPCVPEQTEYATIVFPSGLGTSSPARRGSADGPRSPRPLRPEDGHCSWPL

[7] = biological target: T7, Human ICOS (Acrobiosystems, Cat# ICS-H5250) (human, UniProt Q9Y6W8 21-140, limits assumed); experiment: ELISA, human ICOS coated at 25 ng/well
T7 sequence (looked up): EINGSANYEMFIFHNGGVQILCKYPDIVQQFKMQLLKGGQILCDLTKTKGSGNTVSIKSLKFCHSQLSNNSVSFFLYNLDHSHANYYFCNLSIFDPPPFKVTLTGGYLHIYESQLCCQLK

[8] = biological target: T8, human CTLA-4 (Acrobiosystems, Cat# CT4-H5229) (human, UniProt P16410 36-161); experiment: ELISA, human CTLA-4 coated at 25 ng/well
T8 sequence (looked up): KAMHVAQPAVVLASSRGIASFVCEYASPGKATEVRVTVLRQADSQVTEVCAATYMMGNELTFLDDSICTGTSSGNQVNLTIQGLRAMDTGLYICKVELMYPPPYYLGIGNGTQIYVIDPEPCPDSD

[9] = biological target: T9, human PD-1 of SEQ ID NO.: 66 stably expressed on transfected cells (CHO-K1-PD-1 cells; Jurkat-NFAT-PD1 cells) (human, UniProt Q15116 25-288); experiment: flow cytometry on CHO-K1 cells stably expressing human PD-1, MFI
T9 construct: also called cell surface PD-1; PD-1 expressed on CHO-K1-PD-1 cells
T9 sequence (Q15116 25-288 limits assumed): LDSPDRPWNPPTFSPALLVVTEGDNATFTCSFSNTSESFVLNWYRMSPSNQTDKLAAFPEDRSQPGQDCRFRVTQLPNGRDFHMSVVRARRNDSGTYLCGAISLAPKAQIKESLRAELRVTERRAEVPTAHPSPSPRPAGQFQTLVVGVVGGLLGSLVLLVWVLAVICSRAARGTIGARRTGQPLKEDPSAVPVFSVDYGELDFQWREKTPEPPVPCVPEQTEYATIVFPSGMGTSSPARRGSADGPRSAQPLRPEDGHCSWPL

[10] = biological target: T1, Human PD-1 (prepared in Leadsbiolabs, …); experiment: blocking ELISA, human PD-1 coated, blocked ligand human PD-L1-mouse Fc-tag
[11] = biological target: T1, Human PD-1 (prepared in Leadsbiolabs, …); experiment: as above; remark: listed apart in the source
[12] = biological target: T1, Human PD-1 (prepared in Leadsbiolabs, …); experiment: as above; remark: listed apart in the source
[13] = biological target: T3, Human PD-1 protein (SINO Biological …); experiment: ELISA, human PD-1 coated at 25 ng/well, detection with anti-human F(ab')2-HRP
[14] = biological target: T1, Human PD-1 (prepared in Leadsbiolabs, …); experiment: blocking ELISA, human PD-1 coated, blocked ligand human PD-L1-mouse Fc-tag; remark: listed apart in the source
[15] = biological target: T3, Human PD-1 protein (SINO Biological …); experiment: ELISA, human PD-1 coated at 25 ng/well, detection with anti-human F(ab')2-HRP; remark: listed apart in the source
[16] = biological target: T3, Human PD-1 protein (SINO Biological …); experiment: as above; remark: listed apart in the source
[17] = biological target: T1, Human PD-1 (prepared in Leadsbiolabs, …); experiment: blocking ELISA, human PD-1 coated, blocked ligand human PD-L1-mouse Fc-tag; x axis printed as log values -1 to 2
[18] = biological target: T3, Human PD-1 protein (SINO Biological …); experiment: ELISA, human PD-1 coated at 25 ng/well, detection with anti-human F(ab')2-HRP; remark: listed apart in the source
[19] = biological target: Human FcγRI (Acrobiosystems, Cat# FCA-H52H2) (human, UniProt P12314 16-288); experiment: ELISA, human FcγRI coated, detection with anti-human F(ab')2-HRP
Sequence of Human FcγRI (Acrobiosystems, Cat# FCA-H52H2) (P12314 16-288 limits assumed): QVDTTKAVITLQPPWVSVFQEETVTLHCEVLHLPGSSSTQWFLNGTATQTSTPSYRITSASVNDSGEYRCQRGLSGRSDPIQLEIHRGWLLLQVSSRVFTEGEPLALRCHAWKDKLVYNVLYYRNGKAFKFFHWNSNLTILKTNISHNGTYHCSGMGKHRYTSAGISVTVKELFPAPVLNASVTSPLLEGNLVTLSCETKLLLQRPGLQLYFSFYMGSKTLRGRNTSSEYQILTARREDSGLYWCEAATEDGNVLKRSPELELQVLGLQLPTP

B1: IgG Control (antibody, V domains shown)
VH: QVQLQESGGGVVRPGGSLRLSCAASGFTFDDYGMSWVRQAPGKGLEWVSGINWSGGSTYYADSVKGRSTISRDNSKNTLYLQMNSLRAEDTAVYYCATGGYWGQGTLVTVSS
VL: not shown
notes: also called human IgG control
IC50 [1]: 3.77 nM | binding result [2]: no binding (tested: about 2 nM) | binding result [3]: no binding (tested: about 2 nM)

B2: Nivolumab analog (antibody, human IgG4 S228P, kappa, V domains shown)
VH: QVQLVESGGGVVQPGRSLRLDCKASGITFSNSGMHWVRQAPGKGLEWVAVIWYDGSKRYYADSVKGRFTISRDNSKNTLFLQMNSLRAEDTAVYYCATNDDYWGQGTLVTVSS
VL: EIVLTQSPATLSLSPGERATLSCRASQSVSSYLAWYQQKPGQAPRLLIYDASNRATGIPARFSGSGSGTDFTLTISSLEPEDFAVYYCQQSSNWPRTFGQGTKVEIKR
notes: also called positive control
binding result [4]: no binding (tested: about 2 nM) | binding result [5]: no binding (tested: about 2 nM) | EC50 [6]: 0.692 nM | binding result [7]: no binding (tested: about 2 nM) | binding result [8]: no binding (tested: about 2 nM)

B3: anti-PD-1 antibody 21F12 (mutant IgG1 constant region of SEQ ID NO: 18) (antibody, V domains shown)
VH: QMQLVQSGAEVKKPGASVKLSCKASGYIFTSYYIHWVRQAPGQGLEWVGVINPSGGSTTYAQKFQGRVTMTRDTSISTAYMELSRLRSDDTVVYYCARGSYSSGWDYYYYYGMDVWGKGTLVTVSS
VL: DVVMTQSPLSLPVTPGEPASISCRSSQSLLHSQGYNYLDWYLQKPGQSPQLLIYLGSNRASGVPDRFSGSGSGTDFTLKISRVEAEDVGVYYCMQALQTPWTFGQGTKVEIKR
notes: Full length IgG expressed in CHO-S cells
EC50 [9]: 1.06 nM | IC50 [10]: 0.684 nM | IC50 [11]: 0.834 nM | IC50 [12]: 0.716 nM | EC50 [13]: 0.0447 nM | IC50 [14]: 0.913 nM

B5: anti-PD-1 antibody 21F12-1C4 (mutant IgG1 constant region of SEQ ID NO: 18) (antibody, V domains shown)
VH: B3 VH with G26D
VL: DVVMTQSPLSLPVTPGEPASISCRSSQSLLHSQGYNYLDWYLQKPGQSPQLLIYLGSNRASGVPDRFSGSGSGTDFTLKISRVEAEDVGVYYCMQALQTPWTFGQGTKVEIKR
notes: mutant IgG1
EC50 [9]: 0.479 nM | IC50 [12]: 0.558 nM

B9: anti-PD-1 antibody 21F12-1B12 (mutant IgG1 constant region of SEQ ID NO: 18) (antibody, V domains shown)
VH: B3 VH with I28P, T30Q
VL: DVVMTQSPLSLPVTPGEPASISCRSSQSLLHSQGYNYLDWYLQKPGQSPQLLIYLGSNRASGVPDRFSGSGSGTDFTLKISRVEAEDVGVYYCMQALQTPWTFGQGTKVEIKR
notes: mutant IgG1
EC50 [9]: 0.257 nM | EC50 [15]: 0.102 nM | IC50 [14]: 0.623 nM | IC50 [17]: 0.725 nM | EC50 [18]: 0.0936 nM

B10: anti-PD-1 antibody 21F12-1E10 (mutant IgG1 constant region of SEQ ID NO: 18) (antibody, V domains shown)
VH: B3 VH with I28P
VL: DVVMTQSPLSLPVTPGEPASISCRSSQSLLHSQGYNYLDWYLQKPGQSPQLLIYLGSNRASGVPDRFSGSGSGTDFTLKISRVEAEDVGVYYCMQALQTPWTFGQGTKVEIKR
notes: mutant IgG1
EC50 [9]: 0.464 nM | EC50 [16]: 0.111 nM | IC50 [10]: 0.482 nM

B11: Rituximab analog (antibody, human IgG1, kappa)
heavy: not shown
light: QIVLSQSPAILSASPGEKVTMTCRASSSVSYIHWFQQKPGSSPKPWIYATSNLASGVPVRFSGSGSGTSYSLTISRVEAEDAATYYCQQWTSNPPTFGGGTKLEIKRTVAAPSVFIFPPSDEQLKSGTASVVCLLNNFYPREAKVQWKVDNALQSGNSQESVTEQDSKDSTYSLSSTLTLSKADYEKHKVYACEVTHQGLSSPVTKSFNRGEC
notes: Wild type IgG1 heavy chain constant region; also called positive control of the FcγRI ELISA
binding result [19]: binds

Continued, values first:

EC50 [15]: 0.136 nM | IC50 [14]: 1.1 nM
B4: anti-PD-1 antibody 21F12-2E1 (mutant IgG1 constant region of SEQ ID NO: 18) (antibody, V domains shown)
VH: B3 VH with G26E, T30Q
VL: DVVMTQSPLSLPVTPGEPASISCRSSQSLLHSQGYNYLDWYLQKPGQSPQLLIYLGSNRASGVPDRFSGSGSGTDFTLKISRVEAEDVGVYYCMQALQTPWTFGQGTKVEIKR
notes: mutant IgG1

EC50 [15]: 0.0936 nM | EC50 [16]: 0.0914 nM | IC50 [14]: 0.653 nM
B6: anti-PD-1 antibody 21F12-1E11 (mutant IgG1 constant region of SEQ ID NO: 18) (antibody, V domains shown)
VH: B3 VH with I28F, T30Q
VL: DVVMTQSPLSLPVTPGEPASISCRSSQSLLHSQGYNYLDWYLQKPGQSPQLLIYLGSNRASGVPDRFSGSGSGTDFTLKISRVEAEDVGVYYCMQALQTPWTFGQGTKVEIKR
notes: mutant IgG1

EC50 [15]: 0.101 nM | IC50 [14]: 1.15 nM
B7: anti-PD-1 antibody 21F12-2H7 (mutant IgG1 constant region of SEQ ID NO: 18) (antibody, V domains shown)
VH: B3 VH with G26Q, T30Q
VL: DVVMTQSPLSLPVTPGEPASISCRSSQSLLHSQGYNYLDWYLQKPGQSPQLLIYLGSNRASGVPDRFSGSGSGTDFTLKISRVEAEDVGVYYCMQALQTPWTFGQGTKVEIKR
notes: mutant IgG1

EC50 [9]: 0.334 nM | EC50 [16]: 0.108 nM | IC50 [11]: 0.699 nM
B8: anti-PD-1 antibody 21F12-3G1 (mutant IgG1 constant region of SEQ ID NO: 18) (antibody, V domains shown)
VH: B3 VH with S102N
VL: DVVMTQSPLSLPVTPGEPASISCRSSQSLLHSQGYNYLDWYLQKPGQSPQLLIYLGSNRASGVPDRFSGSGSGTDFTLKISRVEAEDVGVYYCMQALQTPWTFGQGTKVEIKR
notes: mutant IgG1
